Assay results as given in PMC5727398, “Nucleotide– and Mal3-dependent changes in fission yeast microtubules suggest a structural plasticity view of dynamics” (Nature Communications, 2017).

B1: monomeric Mal3 (1-143, Mal3-143) (domain or fragment, S. pombe, UniProt Q10113 1-143, looked up)
chain: MSESRQELLAWINQVTSLGLTRIEDCGKGYAMIQIFDSIYQDIPLKKVNFECNNEYQYINNWKVLQQVFLKKGIDKVVDPERLSRCKMQDNLEFVQWAKRFWDQYYPGGDYDALARRGNRGPANTRVMNSSAGATGPSRRRQV
notes: also called Mal3 CH domain
B2: full-length Mal3-GFP (natural protein, S. pombe, UniProt Q10113 1-308, looked up)
chain: MSESRQELLAWINQVTSLGLTRIEDCGKGYAMIQIFDSIYQDIPLKKVNFECNNEYQYINNWKVLQQVFLKKGIDKVVDPERLSRCKMQDNLEFVQWAKRFWDQYYPGGDYDALARRGNRGPANTRVMNSSAGATGPSRRRQVSSGSSTPSMTKSSANNNNVSSTANTAAVLRAKQAQQQITSLETQLYEVNETMFGLERERDFYFNKLREIEILVQTHLTTSPMSMENMLERIQAILYSTEDGFELPPDQPADLTTALTDHDTNNVAEEAQMTDLKDSETQRVPSAPDFVHARLQSLEVDDDENITF
notes: Mal3, the S. pombe EB protein, full length; His tag removed by TEV protease cleavage; also called dimeric Mal3; not shown: e-GFP, C-terminal, kept
B3: S. pombe α-tubulin1 (in the microtubule lattice) (natural protein, UniProt P04688 1-455, looked up)
chain: MREVISVHVGQAGVQIGNACWELYCLEHGIGPDGFPTENSEVHKNNSYLNDGFGTFFSETGQGKFVPRSIYVDLEPNVIDQVRTGPYKDLFHPEQMVTGKEDASNNYARGHYTVGKEMIDSVLERIRRMADNCSGLQGFLVFHSFGGGTGSGLGALLLERLNMEYGKKSNLQFSVYPAPQVSTSVVEPYNSVLTTHATLDNSDCTFMVDNEACYDICRRNLDIERPTYENLNRLIAQVVSSITASLRFAGSLNVDLNEFQTNLVPYPRIHFPLVTYSPIVSAAKAFHESNSVQEITNQCFEPYNQMVKCDPRTGRYMATCLLYRGDVIPRDVQAAVTSIKSRRTIQFVDWCPTGFKIGICYEPPQHVPGSGIAKVNRAVCMLSNTTSIAEAWSRLDHKFDLMYSKRAFVHWYVGEGMEEGEFSEAREDLAALERDYEEVGQDSMDNEMYEADEEY
notes: S. pombe alpha-tubulin1, native, untagged; the sample was a wild-type mixture of alpha-tubulin1 and alpha-tubulin2, the model and the residue numbers are those of alpha-tubulin1; Subunit of m2, written alone for the contacts seen in the structure; also called Sp_α-tubulin1; Sp_α-tub; source: purified from S. pombe as tag-free endogenous tubulin (dual isoform), polymerized in vitro

Tests used:
[1] = target: B3; test: cryo-EM structure; 20 or 30 uM dual-isoform Sp_tub polymerized with 5 mM GTP and 25 uM Mal3-143 at 32 °C in PEM mixed 1:1 with MES buffer; 13 uM MTs incubated with 60 uM Mal3 before freezing; 13-PF (13_3) MTs, single-particle averaging, 4.6 Å, no kinesin motor domain; conditions: both partners purified
[2] = target: T1, dynamic microtubules polymerized from unlabeled single-isoform S. pombe tubulin (S. pombe, UniProt P04688 1-455; P05219 1-448); test: TIRF microscopy; dynamic unlabeled MTs grown from antibody-immobilized GMPCPP pig brain MT seeds; GFP-labelled EB protein in solution; PEM100 pH 6.9 plus 1 mM GTP, with additional KCl (55, 75, 85 mM) in some experiments; 4.5 or 14 uM Sp_tub, 25 uM pig brain tubulin; conditions: both partners purified
T1 construct: S. pombe alpha-tubulin1, untagged; S. pombe beta-tubulin, untagged; Polymer of alpha-beta heterodimers, grown with 1 mM GTP from Alexa-488-labeled GMPCPP-stabilized pig brain MT seeds
T1 sequence (P05219 whole entry, canonical isoform, one chain of several): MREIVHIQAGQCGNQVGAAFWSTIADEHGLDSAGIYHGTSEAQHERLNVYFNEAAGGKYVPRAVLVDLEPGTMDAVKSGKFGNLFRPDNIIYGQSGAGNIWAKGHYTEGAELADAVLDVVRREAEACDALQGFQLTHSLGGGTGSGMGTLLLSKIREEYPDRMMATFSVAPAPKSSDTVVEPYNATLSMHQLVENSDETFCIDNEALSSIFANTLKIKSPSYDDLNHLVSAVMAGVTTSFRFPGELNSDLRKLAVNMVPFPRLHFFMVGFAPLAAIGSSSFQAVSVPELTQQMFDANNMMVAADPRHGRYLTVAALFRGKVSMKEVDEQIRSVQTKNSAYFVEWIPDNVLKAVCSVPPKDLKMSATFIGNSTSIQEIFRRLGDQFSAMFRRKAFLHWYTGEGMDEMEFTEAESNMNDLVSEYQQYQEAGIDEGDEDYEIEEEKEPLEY

[3] = target: the molecule itself; test: cryo-EM structure; 20 or 30 uM dual-isoform Sp_tub polymerized with 5 mM GTP and 25 uM Mal3-143 at 32 °C in PEM mixed 1:1 with MES buffer; 13 uM MTs incubated with 60 uM Mal3 before freezing; 13-PF (13_3) MTs, single-particle averaging, 4.6 Å, no kinesin motor domain

Binder: B1
binding result [1]: binds

Binder: B2
binding result [2]: binds

Binder: B3
binding result [3]: binds
